The source of these data is patent US20200284794A1.

The target of assay [1] is Keratin 17 in HeLa cells (human) (UniProt Q04695). The assay can be described thus: microfluidic cytometry (Moxi Go), methanol-fixed HeLa cells, E3 primary antibody, PE anti-mouse secondary.
Assay [2] addresses Keratin 17 recombinant protein (human) (UniProt Q04695). The assay can be described thus: sandwich ELISA: E3 coated 2 ug/mL, recombinant K17 calibrator 333.3 ng/mL, detection 2D10-HRP 1 ug/mL. (ELISA stands for enzyme-linked immunosorbent assay.)
Assay [3] shares this target. The assay is described as follows: sandwich ELISA: E3 coated 2 ug/mL, recombinant K17 calibrator 37.0 ng/mL, detection 2D10-HRP 1 ug/mL.
For assay [4] the target is unchanged. The assay is described as follows: sandwich ELISA: E3 capture, 2D10-HRP detection, recombinant K17 calibrators.
For assay [5] the target is unchanged. The assay can be described thus: sandwich ELISA: E3 coated 2 ug/mL, recombinant K17 calibrator 12.3 ng/mL, detection 2D10-HRP 1 ug/mL.
For assay [6] the target is unchanged. The assay can be described thus: sandwich ELISA: E3 coated 2 ug/mL, recombinant K17 calibrator 1.4 ng/mL, detection 2D10-HRP 1 ug/mL.
For assay [7] the target is unchanged. The assay can be described thus: sandwich ELISA: E3 coated 2 ug/mL, recombinant K17 calibrator 1000 ng/mL, detection 2D10-HRP 1 ug/mL.
Assay [8] shares this target. The assay is described as follows: sandwich ELISA: E3 coated 2 ug/mL, recombinant K17 calibrator 111.1 ng/mL, detection 2D10-HRP 1 ug/mL.
Assay [9] has the same target. The assay can be described thus: sandwich ELISA: E3 coated 2 ug/mL, recombinant K17 calibrator 4.1 ng/mL, detection 2D10-HRP 1 ug/mL.

Turning to “mouse monoclonal-[E3] anti-human K17 antibody”, the % K17-positive cells in assay [1] is 90.4%. Moreover, the OD Avg. (450 nm) in [2] is 3.59 OD; in [3] it was 0.838 OD; in assay [5] it was 0.321 OD; in assay [6], 0.084 OD; in assay [7], 3.59 OD; in assay [8], 2.38 OD. Moreover, the OD Avg. (450 nm) in [9] amounted to 0.141 OD. For the same substance, the OD-1 (450 nm) in assay [2] was 3.58 OD; in assay [3] it was 0.844 OD; in assay [5] it was 0.323 OD; in assay [6], 0.087 OD; in [7] it was 3.56 OD; in [8] it was 2.47 OD. For the same substance, in assay [9], the OD-1 (450 nm) turned out to be 0.142 OD. The OD-2 (450 nm) in assay [2] came out at 3.6 OD; in [3], 0.832 OD; in assay [5], 0.318 OD; in assay [6] it was 0.081 OD; in assay [7] it was 3.62 OD; in assay [8], 2.29 OD. For the same substance, the OD-2 (450 nm) in [9] was found to be 0.14 OD. For the same substance, in assay [4], the limit of sensitivity turned out to be 1 ng/mL.
